Test results from PMC7895813.

Experiments:
[1] = target: Xenopus tropicalis MDM2 414-C (MDM2^f), GST-tag removed (Xenopus tropicalis (western clawed frog)); test: crystal structure; MDM2^f or MDM2^hGT mixed with UbcH5B–Ub at 1:1 ratio; crystals grown at 19 °C by vapour diffusion
[2] = target: Xenopus tropicalis MDM2 414-C (MDM2^f), GST-tag removed (Xenopus tropicalis (western clawed frog)); test: crystal structure; free MDM2 RING domains (MDM2^z, MDM2^f); crystals grown at 19 °C by vapour diffusion
[3] = target: Xenopus tropicalis MDM2 414-C (MDM2^f), GST-tag removed (Xenopus tropicalis (western clawed frog)); test: SEC; cleaved MDM2 variants after removal of the GST-tag on HiLoad 16/600 Superdex 75; oligomeric state by comparison with molecular weight markers
[4] = target: opossum MDM2 421-C, GST-tag removed (Monodelphis domestica (opossum)); test: SEC; GST-MDM2 variants (3 mg/mL) incubated with 1:10 TEV for 16-20 h at 4 °C; soluble fraction of the cleaved products on Superdex 75 Increase 10/300; comparison with molecular weight markers and SDS-PAGE

stoichiometry N [1] | stoichiometry N [2] | stoichiometry N [3] | stoichiometry N [4] | Substance
2 | 2 | 2 | – | Xenopus tropicalis MDM2 414-C (MDM2^f), GST-tag removed (domain or fragment)
– | – | – | 2 | opossum MDM2 421-C, GST-tag removed (domain or fragment)
